From patent US20160333113A1 (NATIONAL CANCER CENTER, published 2016) come the findings set out here.

One may read the Kd as the constant that tells how readily two partners part at equilibrium. Low values mean a tighter complex, high ones a looser complex.

In assay [1] the target is recombinant hTF (human, UniProt P13726 33-251). Nature of the assay: cell-based or functional assay.
The target of assay [2] is T1, human tissue factor (hTF), purified, construct not stated (human, UniProt P13726 33-251, limits assumed).
T1 construct: The SPR and the chimeric-antibody ELISA say only 'purified hTF' / 'hTF'; also called purified hTF; human TF
Nature of the assay: SPR, Biacore 2000, antibody immobilized on CM5 chip, purified hTF in flow. How it is done: The anti-hTF monoclonal antibodies (No. 1849 and No. 1859) were each immobilized on the surface of a Biacore CM5 chip. The CM5 chip, which had each antibody immobilized thereon, was set in a SPR device, and an antigen-containing buffer containing purified hTF was allowed to flow through its flow path. The dissociation constant between each of the antibodies and hTF was determined by this measurement system. It should be noted that the measurement conditions were as follows.
A general note: SPR reads the build-up and loss of mass on a sensor chip optically.

B1: anti-hTF monoclonal antibody (No. 1849) (antibody, IgG2b, V domains shown)
VH: EVQLVESGGGLVQSGRSLKLSCAASGFTFSDYNMAWIRQAPKKGLEWVAAIIYDGTRTYYRDSVRGRFTISRDNAKSTLYLQVDSLRSEDTATYYCATGDSYTNFAYWGQGTLVTVSS
VL: EIVLTQSPTTMAASPGEKVTLTCRASSSLSYMHWYQQRSGTSPKLWIYETSKLASGVPNRFSGSGSGTSFSLTIDSMETEDAATYYCQQGNSYPRTFGGGTKLELK
notes: Rat hybridoma IgG purified on Protein G; constant regions are not; also called rat anti-hTF monoclonal antibody (No. 1849)
For B1, the “Prolonged coagulation time ratio (prothrombin time ratio, PBS control = 1)” value in assay [1] is 5.54 ratio relative to PBS. The same molecule yielded a Kd in assay [2] of 0.0914 nM.

B2: anti-hTF monoclonal antibody (No. 1859) (antibody, IgG2a, V domains shown)
VH: EVMLVESGPGLVQPSQTLSLICTVSGFSLTDYSVHWVRQPPGKGLEWVGVMWSGGTTTFNSGLKSRLSISRDTSKSQVFLKMYSLRTEDTAVYYCTRERAGSPLNWFAYWGQGTLVTVSS
VL: DIVMTQSPASLSASLEEIVTITCQASQDIGNYLSWYQQKPGKSPHLLIHSSTSLADGVPSRFSGSRSGTQYSLKINRLQVEDTGVYYCLQHYSGSRTFGGGTNLELK
notes: Rat hybridoma IgG purified on Protein G; constant regions are not
In the case of B2, the “Prolonged coagulation time ratio (prothrombin time ratio, PBS control = 1)” value in assay [1] was 1.22 ratio relative to PBS. Moreover, the Kd in assay [2] amounted to 0.189 nM.
